T1: Gα13 K94E/R97E (human, UniProt Q14344 1-377, K94E | R97E)
T1 sequence (looked up): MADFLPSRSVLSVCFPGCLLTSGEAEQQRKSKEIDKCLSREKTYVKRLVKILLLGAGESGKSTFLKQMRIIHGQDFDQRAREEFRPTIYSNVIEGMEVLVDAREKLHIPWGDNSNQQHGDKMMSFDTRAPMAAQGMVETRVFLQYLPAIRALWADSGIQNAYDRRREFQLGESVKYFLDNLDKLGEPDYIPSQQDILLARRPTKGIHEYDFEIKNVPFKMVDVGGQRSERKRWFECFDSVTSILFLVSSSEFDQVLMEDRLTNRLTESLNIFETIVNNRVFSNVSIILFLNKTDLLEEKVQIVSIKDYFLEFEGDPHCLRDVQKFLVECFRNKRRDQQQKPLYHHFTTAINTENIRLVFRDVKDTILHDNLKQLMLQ

T2: Gα13 R279A (human, UniProt Q14344 1-377, R279A)
T2 sequence (looked up): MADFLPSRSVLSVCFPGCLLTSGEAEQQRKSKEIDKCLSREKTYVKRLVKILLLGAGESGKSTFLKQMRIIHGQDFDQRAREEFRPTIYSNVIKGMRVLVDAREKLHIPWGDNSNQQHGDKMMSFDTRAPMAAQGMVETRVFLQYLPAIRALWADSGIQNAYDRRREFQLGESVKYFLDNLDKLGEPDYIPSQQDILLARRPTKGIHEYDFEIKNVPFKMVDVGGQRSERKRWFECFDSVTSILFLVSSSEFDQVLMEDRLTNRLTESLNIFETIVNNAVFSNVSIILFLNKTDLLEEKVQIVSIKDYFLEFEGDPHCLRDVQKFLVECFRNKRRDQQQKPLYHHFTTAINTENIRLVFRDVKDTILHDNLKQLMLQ

T3: Gα13 P202A (human, UniProt Q14344 1-377, P202A)
T3 sequence (looked up): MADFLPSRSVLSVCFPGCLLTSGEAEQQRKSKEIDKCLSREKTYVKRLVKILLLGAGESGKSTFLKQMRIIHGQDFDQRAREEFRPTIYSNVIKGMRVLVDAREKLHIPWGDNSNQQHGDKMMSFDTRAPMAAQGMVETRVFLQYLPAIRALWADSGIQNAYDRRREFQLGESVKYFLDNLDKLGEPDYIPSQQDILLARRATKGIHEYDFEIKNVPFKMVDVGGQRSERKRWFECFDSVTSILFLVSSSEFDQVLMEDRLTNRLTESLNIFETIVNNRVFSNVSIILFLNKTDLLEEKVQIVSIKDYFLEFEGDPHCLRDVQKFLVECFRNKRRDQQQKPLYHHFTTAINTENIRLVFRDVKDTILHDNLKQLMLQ

T4: Gα13 (human, UniProt Q14344 1-377)
T4 sequence: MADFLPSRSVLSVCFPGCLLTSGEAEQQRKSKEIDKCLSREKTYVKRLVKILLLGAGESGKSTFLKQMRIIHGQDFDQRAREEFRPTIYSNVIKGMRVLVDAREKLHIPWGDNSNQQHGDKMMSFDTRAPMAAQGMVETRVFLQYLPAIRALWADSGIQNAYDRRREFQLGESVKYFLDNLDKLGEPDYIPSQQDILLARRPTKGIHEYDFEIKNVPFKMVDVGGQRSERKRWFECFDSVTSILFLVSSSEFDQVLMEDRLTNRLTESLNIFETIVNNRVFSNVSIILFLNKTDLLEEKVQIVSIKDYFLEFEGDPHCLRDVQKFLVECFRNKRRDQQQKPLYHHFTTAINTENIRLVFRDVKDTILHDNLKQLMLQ

T5: Gα12 (human, UniProt Q03113 1-381)
T5 sequence: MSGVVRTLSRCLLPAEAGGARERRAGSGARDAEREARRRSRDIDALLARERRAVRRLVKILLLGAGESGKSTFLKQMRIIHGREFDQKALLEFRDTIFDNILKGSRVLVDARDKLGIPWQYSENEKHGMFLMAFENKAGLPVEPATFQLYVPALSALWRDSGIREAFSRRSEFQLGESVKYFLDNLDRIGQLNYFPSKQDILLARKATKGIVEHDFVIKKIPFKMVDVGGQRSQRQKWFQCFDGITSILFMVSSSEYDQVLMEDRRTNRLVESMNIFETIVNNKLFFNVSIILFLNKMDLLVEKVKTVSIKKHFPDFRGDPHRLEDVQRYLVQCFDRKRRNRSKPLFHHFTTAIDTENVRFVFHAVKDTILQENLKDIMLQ


Tests used:
Experiment in all cases: FRET or BRET
Gα13 K94E/R97E = target: T1, Gα13 K94E/R97E
Gα13 R279A = target: T2, Gα13 R279A
Gα13 P202A = target: T3, Gα13 P202A
[1] = target: Gα13 with mutations in three helical domain residues
Gα13 R201V (human) = Gα13 R201V (human) (UniProt Q14344)
Gα13 = target: T4, Gα13
Gα12 = target: T5, Gα12

| Binder | percent reduction of recruitment against WT Gα13 (Gα13 K94E/R97E) [%] | percent reduction of recruitment against WT Gα13 (Gα13 R279A) [%] | percent reduction of recruitment against WT Gα13 (Gα13 P202A) [%] | percent reduction of recruitment against WT Gα13 [1] [%] | percent reduction of recruitment against WT Gα13 (Gα13 R201V (human)) [%] | percent reduction of recruitment against WT p115RhoGEF sensor (Gα13) [%] | percent reduction of recruitment against WT p115RhoGEF sensor (Gα12) [%] |
| --- | --- | --- | --- | --- | --- | --- | --- |
| PDZ RhoGEF-RlucII sensor (domain or fragment, UniProt O15085 281-483, looked up) QGVDQSPKPLIIGPEEDYDPGYFNNESDIIFQDLEKLKSRPAHLGVFLRYIFSQADPSPLLFYLCAEVYQQASPKDSRSLGKDIWNIFLEKNAPLRVKIPEMLQAEIDSRLRNSEDARGVLCEAQEAAMPEIQEQIHDYRTKRTLGLGSLYGENDLLDLDGDPLRERQVAEKQLAALGDILSKYEEDRSAPMDFALNTYMSHA | 71 | 50 | – | – | – | – | – |
| p115 RhoGEF (21-244)-RlucII (domain or fragment, UniProt Q92888 21-244, looked up) VSIIGAEDEDFENELETNSEEQNSQFQSLEQVKRRPAHLMALLQHVALQFEPGPLLCCLHADMLGSLGPKEAKKAFLDFYHSFLEKTAVLRVPVPPNVAFELDRTRADLISEDVQRRFVQEVVQSQQVAVGRQLEDFRSKRLMGMTPWEQELAQLEAWVGRDRASYEARERHVAERLLMHLEEMQHTISTDEEKSAAVVNAIGLYMRHLGVRTKSGDKKSGRNF | 81 | 50 | 37 | 27 to 81 | 26 | – | – |
| p115 RhoGEF (21-244)-RlucII E27A (domain or fragment) VSIIGAADEDFENELETNSEEQNSQFQSLEQVKRRPAHLMALLQHVALQFEPGPLLCCLHADMLGSLGPKEAKKAFLDFYHSFLEKTAVLRVPVPPNVAFELDRTRADLISEDVQRRFVQEVVQSQQVAVGRQLEDFRSKRLMGMTPWEQELAQLEAWVGRDRASYEARERHVAERLLMHLEEMQHTISTDEEKSAAVVNAIGLYMRHLGVRTKSGDKKSGRNF | – | – | – | – | – | ~50 | ~50 |
| p115 RhoGEF (21-244)-RlucII I23A (domain or fragment) VSAIGAEDEDFENELETNSEEQNSQFQSLEQVKRRPAHLMALLQHVALQFEPGPLLCCLHADMLGSLGPKEAKKAFLDFYHSFLEKTAVLRVPVPPNVAFELDRTRADLISEDVQRRFVQEVVQSQQVAVGRQLEDFRSKRLMGMTPWEQELAQLEAWVGRDRASYEARERHVAERLLMHLEEMQHTISTDEEKSAAVVNAIGLYMRHLGVRTKSGDKKSGRNF | – | – | – | – | – | ~50 | ~50 |
| p115 RhoGEF (21-244)-RlucII I23F (domain or fragment) VSFIGAEDEDFENELETNSEEQNSQFQSLEQVKRRPAHLMALLQHVALQFEPGPLLCCLHADMLGSLGPKEAKKAFLDFYHSFLEKTAVLRVPVPPNVAFELDRTRADLISEDVQRRFVQEVVQSQQVAVGRQLEDFRSKRLMGMTPWEQELAQLEAWVGRDRASYEARERHVAERLLMHLEEMQHTISTDEEKSAAVVNAIGLYMRHLGVRTKSGDKKSGRNF | – | – | – | – | – | ~50 | ~50 |

Reference: doi:10.1101/2024.12.28.630591 (bioRxiv, 2024)
